Experimental findings from paper PMC4721543 are described below.

As a reminder, the Kd is the equilibrium constant for the complex coming apart.

Assay [1] has as its target human VEGF-A165 (human). As to the kind of experiment: fluorescence correlation spectroscopy; 1-5 nM ATTO 647N-labelled growth factor with 0.1 nM to 20 μM unlabelled CD44 ectodomain; at least 3 h at room temperature; PBS with 0.05% Tween-20; 20°C; diffusion times fitted with a 1:1 binding model.
Assay [2] concerns the target human VEGF-A165 (human). As to the kind of experiment: fluorescence correlation spectroscopy; as the FCS series, but VEGF165 labelled with NT 647 (Table 1).
Assay [3] has as its target human VEGF-A165 (human). Briefly: MST; 10 nM NT-647-labelled HGF or VEGF165 with serial dilutions of the unlabelled partner; 22°C, PBS plus 1% BSA; Monolith NT.115.

As for “rat CD44v6 ectodomain, hexahistidine-tagged (from UniProt P26051 22-410) (domain or fragment)”, the values for the Kd with human VEGF-A165 (human) [1], in the assay with human VEGF-A165 (human) [2] and in the assay with human VEGF-A165 (human) [3] were 65 nM, 200 nM and 51 nM, respectively.
